Data on 120 sequences can be found in the supplement of paper PMC10126150.

± gives the standard deviation of the averaged measurements.
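Note: ATP exposure 15 min at 22 °C before imaging.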

In this data set the test system is ATP. In words: switch fluorescence ratio, 500 uM ATP over buffer (Cy3 cluster intensity, sum of 5 cycles each) (fold (ratio)); higher = stronger signal-on switching upon ATP binding; sequences stand for … in TCGTCGGCAGCGTCAGATGTGTATAAGAGACAGTTTTTTTTTTTTTTTTTTTTTTTTT…TC. To be noted: aptamer strand: ATP DNA aptamer (quencher-CACCTGGGGGAGTATTGCGGAGGAAGG + anchor), 100 nM annealed; ATP concentration: 500 uM. Summed up: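 The fluorescence ratio divides summed target-cycle Cy3 intensity by summed buffer-cycle Cy3 intensity for each cluster and is averaged per switch-domain sequence. Cy3-labelled switching-strand clusters on a modified Illumina MiSeq flow-cell were annealed to 100 nM quencher-labelled ATP aptamer, then imaged in selection buffer and again after 15 min with 500 uM ATP at 22 °C. Five such cycles were run, with NaOH stripping and re-annealing between them, and clusters outside 100-1000 RFU were excluded.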
Turning to AAGGCAATTA, the switch fluorescence ratio was determined as 1.15 ± 0.033.

Consider CTAGGGCGGA, for which the switch fluorescence ratio worked out at 1.01 ± 0.021.

Take AAAGGGGACG: the switch fluorescence ratio amounted to 1.01 ± 0.017.

CGATGAGGTA: the switch fluorescence ratio is 0.968 ± 0.06.

AGTTCGCTAA: the switch fluorescence ratio was found to be 1.012 ± 0.003.

For CTGGGTTATT, the switch fluorescence ratio was 0.977 ± 0.042.

Regarding AAGACGTTTT, the switch fluorescence ratio came to 1.014 ± 0.0011.

With CTTAAATGGG, the switch fluorescence ratio was determined as 0.955 ± 0.019.

Consider AAGGTTATGT, for which the switch fluorescence ratio is 0.991 ± 0.02.

On to GAAGGGGTTC, for which the switch fluorescence ratio was 1.06 ± 0.084.

With AGACTGGTTG, the switch fluorescence ratio is 0.993 ± 0.035.

Take GGCGTTCGCT: the switch fluorescence ratio was 0.984 ± 0.026.

In the case of CGAGGACTTC, the switch fluorescence ratio is 1.02 ± 0.012.

For the sequence TTAGAGGGTC, the switch fluorescence ratio turned out to be 0.9952 ± 0.0013.

On to AGGAGGGACT, for which the switch fluorescence ratio was 1 ± 0.041.

For the sequence AGGCCGGTTT, the switch fluorescence ratio came to 1.017 ± 0.0061.

With GCGCAAATTT, the switch fluorescence ratio is 0.999 ± 0.017.

Consider GGCCGAGAGG, for which the switch fluorescence ratio is 0.993 ± 0.053.

For the sequence GAGTATCTGC, the switch fluorescence ratio is 1.01 ± 0.079.

On to ATACGCTGTT, for which the switch fluorescence ratio stood at 0.9875 ± 0.0082.

CAATTTTTCG: the switch fluorescence ratio stood at 1.02 ± 0.048.

For the sequence GAGGAGGGTA, the switch fluorescence ratio came to 0.966 ± 0.086.

Consider TGGGGGCGAC, for which the switch fluorescence ratio was found to be 1 ± 0.057.

As for CAAAAAAAGA, the switch fluorescence ratio is 0.986 ± 0.067.

TATATGAGTT: the switch fluorescence ratio worked out at 0.963 ± 0.0099.

On to CAAATTTCAT, for which the switch fluorescence ratio is 0.985 ± 0.023.

Take ACTTCAGGGA: the switch fluorescence ratio is 1.01 ± 0.024.

As for TTTAAAAAAA, the switch fluorescence ratio was determined as 1.02 ± 0.027.

In the case of CGCATGAGTT, the switch fluorescence ratio was 1.017 ± 0.0098.

On to AATTGAAGTG, for which the switch fluorescence ratio came out at 1.022 ± 0.01.

AGTCAGTTGG: the switch fluorescence ratio was 0.967 ± 0.041.

Turning to CCACGCGGCA, the switch fluorescence ratio worked out at 1.19 ± 0.091.

AGAAAGGGTT: the switch fluorescence ratio is 0.98 ± 0.022.

On to AGTCAGGTT, for which the switch fluorescence ratio is 1.02 ± 0.019.

Regarding TCTGGTCGCT, the switch fluorescence ratio amounted to 1.018 ± 0.01.

As for ATTTGACTTC, the switch fluorescence ratio is 1.12 ± 0.19.

For TAGAATGTGT, the switch fluorescence ratio is 1.027 ± 0.0043.

For AGATTGGAGA, the switch fluorescence ratio was determined as 1 ± 0.039.

Take ACGATCGAAA: the switch fluorescence ratio was found to be 1.24 ± 0.019.

As for GGGTATCCGT, the switch fluorescence ratio was found to be 0.979 ± 0.032.

Take GGGTAGTCGG: the switch fluorescence ratio stood at 0.993 ± 0.032.

Consider TAGGGTTTGT, for which the switch fluorescence ratio was found to be 0.989 ± 0.031.

For the sequence TCGTGGGGGG, the switch fluorescence ratio was found to be 0.991 ± 0.031.

On to ACTTTCAGCC, for which the switch fluorescence ratio came to 1.03 ± 0.017.

For TTGAGTGAAA, the switch fluorescence ratio is 0.999 ± 0.0017.

As to GAAATATTTT, the switch fluorescence ratio was determined as 0.996 ± 0.05.

With AGGTGTATGT, the switch fluorescence ratio was 1.01 ± 0.061.

With TGAAGCATTG, the switch fluorescence ratio is 1.35 ± 0.38.

With TTTTCATTGT, the switch fluorescence ratio was found to be 1.02 ± 0.036.

GCTTGCTATT: the switch fluorescence ratio amounted to 0.965 ± 0.021.

As to GGGGTGCTTT, the switch fluorescence ratio stood at 0.987 ± 0.017.

As to TGCGGTCCTG, the switch fluorescence ratio came to 1 ± 0.017.

Take TCAGATATTG: the switch fluorescence ratio was 0.992 ± 0.04.

Regarding CGAATTCAGG, the switch fluorescence ratio amounted to 1.012 ± 0.0068.

Regarding TTGTATTTGG, the switch fluorescence ratio was found to be 1.02 ± 0.043.

With GTTTGTCACC, the switch fluorescence ratio was found to be 1.03 ± 0.034.

For the sequence AGATTGGTTG, the switch fluorescence ratio was determined as 0.985 ± 0.012.

On to AGGGAGTCTG, for which the switch fluorescence ratio was found to be 1.018 ± 0.0035.

Take CAATTTGCTG: the switch fluorescence ratio worked out at 0.94 ± 0.026.

TTAGTGGGAG: the switch fluorescence ratio came to 0.966 ± 0.033.

For the sequence CGGGTTTTTC, the switch fluorescence ratio amounted to 0.972 ± 0.028.

In the case of TAGTTAGTTT, the switch fluorescence ratio turned out to be 1.02 ± 0.029.

Regarding GAGGGGTGCG, the switch fluorescence ratio came to 1.01 ± 0.025.

GAATATTCGC: the switch fluorescence ratio is 0.9958 ± 0.0032.

Regarding AACTCTGAGA, the switch fluorescence ratio worked out at 1.03 ± 0.013.

Regarding GATTGCAGTG, the switch fluorescence ratio was 0.9786 ± 0.002.

As to GGGGGAAGAG, the switch fluorescence ratio was 1.01 ± 0.021.

For the sequence TATTAGTTAA, the switch fluorescence ratio turned out to be 0.992 ± 0.019.

Take AGTAAAGTTA: the switch fluorescence ratio came out at 1.008 ± 0.008.

Take ATATAAAAAG: the switch fluorescence ratio came to 1.02 ± 0.061.

With TGTTTTGAGT, the switch fluorescence ratio amounted to 1.01 ± 0.013.

As to ACTAATTGA, the switch fluorescence ratio worked out at 0.996 ± 0.027.

Regarding AGTTGAGAGA, the switch fluorescence ratio turned out to be 1.01 ± 0.018.

Turning to TATTTCATAT, the switch fluorescence ratio is 1 ± 0.013.

As for TATGGTGAAG, the switch fluorescence ratio was found to be 1 ± 0.024.

As to GAGTTTAATT, the switch fluorescence ratio is 0.999 ± 0.038.

Regarding CGTCTAAGTC, the switch fluorescence ratio was 1.01 ± 0.046.

With TCGTGGATGG, the switch fluorescence ratio worked out at 1 ± 0.026.

Regarding TGGATCAAGT, the switch fluorescence ratio is 1.01 ± 0.06.

For GAAAAGCAGG, the switch fluorescence ratio was determined as 0.989 ± 0.025.

Regarding TAATATAACC, the switch fluorescence ratio came to 1.04 ± 0.014.

For the sequence CGCACTTCTG, the switch fluorescence ratio turned out to be 1.02 ± 0.024.

In the case of AGATGGGGCC, the switch fluorescence ratio came to 1 ± 0.027.

As for GGGGGTGACA, the switch fluorescence ratio came to 0.9931 ± 0.0073.

GGGTTTTTGT: the switch fluorescence ratio came to 1.04 ± 0.055.

For the sequence GATTAAGAGG, the switch fluorescence ratio worked out at 1.01 ± 0.039.

Take GGAGGGGTTG: the switch fluorescence ratio was found to be 1.04 ± 0.015.

With TTAGTGGCCC, the switch fluorescence ratio was determined as 0.99 ± 0.016.

In the case of GGATGGTTGC, the switch fluorescence ratio came to 1.03 ± 0.021.

In the case of GCACTGTGGC, the switch fluorescence ratio was determined as 0.992 ± 0.032.

For the sequence GTAATTGTTA, the switch fluorescence ratio came out at 1 ± 0.015.

Consider ATGTATGATA, for which the switch fluorescence ratio worked out at 0.967 ± 0.013.

GGTAGGGATA: the switch fluorescence ratio came out at 1.08 ± 0.11.

Consider AAGCTGCATG, for which the switch fluorescence ratio is 1.01 ± 0.018.

For TGAAGGCAGG, the switch fluorescence ratio amounted to 1.01 ± 0.072.

Take GGACTGTTTG: the switch fluorescence ratio was 1.01 ± 0.041.

Regarding TCCTGGGTAT, the switch fluorescence ratio turned out to be 1.69 ± 0.98.

On to TAGCAGAGGG, for which the switch fluorescence ratio came out at 1.01 ± 0.023.

Turning to CGTGGCCGTT, the switch fluorescence ratio amounted to 0.978 ± 0.095.

Take TTCCGGTTGG: the switch fluorescence ratio was determined as 1 ± 0.023.

With CGGCATTCAA, the switch fluorescence ratio amounted to 0.9989 ± 0.0057.

With GACACAAAAG, the switch fluorescence ratio came out at 1.069 ± 0.0023.

On to AGAGTTGGTG, for which the switch fluorescence ratio was 0.997 ± 0.031.

ATTCAGATCG: the switch fluorescence ratio came out at 0.999 ± 0.034.

TTTTTGGAAT: the switch fluorescence ratio came out at 1 ± 0.028.

For the sequence ACGATTTTAG, the switch fluorescence ratio worked out at 1.04 ± 0.041.

Consider GGATCATGTG, for which the switch fluorescence ratio came to 1.004 ± 0.0049.

As to CGCCCGGGGG, the switch fluorescence ratio worked out at 1.32 ± 0.45.

CGTCGCGGCA: the switch fluorescence ratio was 0.989 ± 0.026.

Take CAGTTATTGG: the switch fluorescence ratio stood at 0.978 ± 0.038.

For GGTTGGAATA, the switch fluorescence ratio was 0.965 ± 0.044.

GGCCTTTTAA: the switch fluorescence ratio was found to be 1.04 ± 0.029.

With TTCTGTTTTT, the switch fluorescence ratio worked out at 1.09 ± 0.15.

With TGGTTGAACC, the switch fluorescence ratio amounted to 1.03 ± 0.024.

Turning to GTTCGGAGTG, the switch fluorescence ratio came out at 0.9877 ± 0.0086.

On to TAGCACTATC, for which the switch fluorescence ratio stood at 1.35 ± 0.076.

Consider GGAATAGATT, for which the switch fluorescence ratio is 0.99048 ± 0.00037.

GTAGGGATGG: the switch fluorescence ratio was 1.03 ± 0.013.

For the sequence CAGTGCGCGC, the switch fluorescence ratio is 1.01 ± 0.026.

For the sequence ATAGGGATTG, the switch fluorescence ratio was 0.996 ± 0.031.
